This note sets out measurements from patent US20140274782A1, “AFFINITY REAGENTS AND METHODS FOR DETECTION, PURIFICATION, AND PROTEOMIC ANALYSIS OF METHYLATED PROTEINS” (The Board of Trustees of the Leland Stanford Junior …, priority 2013, published 2014).

One assay deals with 3×MBT domain of L3MBTL1. The assay can be described thus: Triple SILAC pull-down, 3xMBT/3xMBTD355N ratio (cytoplasmic, nuclear and chromatin fractions of 293T cells).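 On all read-outs here: proteins quantified with MaxQuant, requiring at least two unique peptides and quantification in both label directions, normalized to the mean of proteins from a digested loading control.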 Particulars: SILAC ratio, pull-down 3xMBT vs 3xMBTD355N; for 3xMBT/D355N UNC Heavy: experiment with UNC0638 in heavy SILAC media; for 3xMBT/D355N UNC Light: experiment with UNC0638 in light SILAC media. Format: binding, human.

The next assay deals with T1, G9a and GLP (Homo sapiens, UniProt Q96KQ7+Q9H9B1).
T1 sequence (Q96KQ7 2-1210 limits assumed): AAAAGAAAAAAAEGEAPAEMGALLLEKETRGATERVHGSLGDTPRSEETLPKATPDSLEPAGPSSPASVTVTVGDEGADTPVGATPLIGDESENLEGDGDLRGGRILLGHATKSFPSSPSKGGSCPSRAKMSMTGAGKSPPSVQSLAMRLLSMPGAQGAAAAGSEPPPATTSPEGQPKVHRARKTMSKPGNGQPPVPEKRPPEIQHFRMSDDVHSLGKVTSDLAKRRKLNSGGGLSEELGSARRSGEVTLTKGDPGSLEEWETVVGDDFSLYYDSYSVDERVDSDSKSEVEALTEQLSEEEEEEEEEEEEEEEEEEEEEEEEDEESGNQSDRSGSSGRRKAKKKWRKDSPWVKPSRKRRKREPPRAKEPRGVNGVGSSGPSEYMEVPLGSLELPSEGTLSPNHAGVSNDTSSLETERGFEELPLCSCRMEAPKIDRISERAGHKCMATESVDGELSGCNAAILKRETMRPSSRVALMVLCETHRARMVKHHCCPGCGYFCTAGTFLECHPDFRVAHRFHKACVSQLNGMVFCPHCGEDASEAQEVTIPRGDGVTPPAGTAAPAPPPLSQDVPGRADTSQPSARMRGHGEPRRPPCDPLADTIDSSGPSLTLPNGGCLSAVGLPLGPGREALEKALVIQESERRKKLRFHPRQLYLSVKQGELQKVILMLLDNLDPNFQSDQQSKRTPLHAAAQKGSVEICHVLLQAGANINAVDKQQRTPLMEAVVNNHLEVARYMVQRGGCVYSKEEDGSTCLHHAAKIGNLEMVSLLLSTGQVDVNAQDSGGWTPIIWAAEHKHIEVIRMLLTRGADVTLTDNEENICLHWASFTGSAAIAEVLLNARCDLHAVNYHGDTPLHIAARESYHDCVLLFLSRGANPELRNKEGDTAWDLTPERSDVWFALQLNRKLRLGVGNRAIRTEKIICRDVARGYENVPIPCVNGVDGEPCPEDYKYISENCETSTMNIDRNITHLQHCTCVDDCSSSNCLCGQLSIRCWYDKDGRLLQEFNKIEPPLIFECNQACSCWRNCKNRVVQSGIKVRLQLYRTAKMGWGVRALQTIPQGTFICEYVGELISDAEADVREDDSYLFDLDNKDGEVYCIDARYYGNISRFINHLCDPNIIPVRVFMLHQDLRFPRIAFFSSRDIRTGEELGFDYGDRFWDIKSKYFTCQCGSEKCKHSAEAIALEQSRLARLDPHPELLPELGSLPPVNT
T1 sequence (Q9H9B1 2-1298 limits assumed): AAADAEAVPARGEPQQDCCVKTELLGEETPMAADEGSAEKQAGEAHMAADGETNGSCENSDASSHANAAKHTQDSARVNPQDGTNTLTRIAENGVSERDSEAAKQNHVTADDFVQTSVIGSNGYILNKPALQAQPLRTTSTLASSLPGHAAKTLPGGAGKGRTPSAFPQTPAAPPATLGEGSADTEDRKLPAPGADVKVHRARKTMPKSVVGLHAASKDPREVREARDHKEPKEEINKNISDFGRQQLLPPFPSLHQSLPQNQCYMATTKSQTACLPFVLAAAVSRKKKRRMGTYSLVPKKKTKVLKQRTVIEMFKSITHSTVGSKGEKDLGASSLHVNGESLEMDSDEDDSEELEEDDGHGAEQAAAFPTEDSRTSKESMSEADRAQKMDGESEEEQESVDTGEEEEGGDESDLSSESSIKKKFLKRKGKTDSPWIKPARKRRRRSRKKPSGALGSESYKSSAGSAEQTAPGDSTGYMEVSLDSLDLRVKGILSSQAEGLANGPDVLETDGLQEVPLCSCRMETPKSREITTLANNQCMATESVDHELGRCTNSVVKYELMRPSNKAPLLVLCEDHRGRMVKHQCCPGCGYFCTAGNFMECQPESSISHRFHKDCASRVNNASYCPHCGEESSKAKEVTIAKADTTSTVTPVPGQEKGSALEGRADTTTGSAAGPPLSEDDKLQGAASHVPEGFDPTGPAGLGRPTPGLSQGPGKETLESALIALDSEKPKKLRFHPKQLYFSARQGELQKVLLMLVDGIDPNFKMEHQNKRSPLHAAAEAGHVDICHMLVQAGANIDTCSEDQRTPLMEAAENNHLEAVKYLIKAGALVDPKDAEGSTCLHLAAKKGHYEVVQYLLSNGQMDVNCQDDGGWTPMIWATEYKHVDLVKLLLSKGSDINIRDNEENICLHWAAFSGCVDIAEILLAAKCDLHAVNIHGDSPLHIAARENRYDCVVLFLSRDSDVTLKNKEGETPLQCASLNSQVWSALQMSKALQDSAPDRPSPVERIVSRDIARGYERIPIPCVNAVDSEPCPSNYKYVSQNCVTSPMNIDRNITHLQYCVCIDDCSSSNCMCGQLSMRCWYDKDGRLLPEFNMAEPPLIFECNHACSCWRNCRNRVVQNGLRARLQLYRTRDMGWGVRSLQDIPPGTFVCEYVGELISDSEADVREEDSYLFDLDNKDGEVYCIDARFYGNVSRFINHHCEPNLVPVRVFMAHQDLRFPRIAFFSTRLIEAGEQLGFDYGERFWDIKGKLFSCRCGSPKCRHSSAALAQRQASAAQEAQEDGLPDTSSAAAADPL
Briefly: Triple SILAC pull-down after UNC0638 treatment of 293T cells, DMSO/UNC0638 ratio of protein captured by 3×MBT.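 On all read-outs here: mass spectrometry (Q-Exactive) SILAC quantitation, DMSO/UNC0638 ratio computed after subtracting 3×MBTD355N mutant pull-down background, only proteins with at least twofold 3×MBT over mutant signal considered.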 On the set-up: cells were treated for 24 hours with UNC0638 at 2.5 μM or DMSO vehicle control; endogenous in cells; host or cells: HEK 293T. Type of assay: cell-based. The settings on record: for Relative to UNC0638 UNC Heavy / Relative to UNC0638 UNC Light: SILAC ratio DMSO/UNC0638 of protein pulled down with 3xMBT; for Relative to UNC0638 UNC Heavy: UNC0638 in heavy SILAC media; for Relative to UNC0638 UNC Light: UNC0638 in light SILAC media; for Relative to UNC0638 Average: average of UNC Light and UNC Heavy experiments.

B1: C20orf43 (protein, UniProt Q9BY42 1-306, looked up)
Replication termination …: MGCDGGTIPKRHELVKGPKKVEKVDKDAELVAQWNYCTLSQEILRRPIVACELGRLYNKDAVIEFLLDKSAEKALGKAASHIKSIKNVTELKLSDNPAWEGDKGNTKGDKHDDLQRARFICPVVGLEMNGRHRFCFLRCCGCVFSERALKEIKAEVCHTCGAAFQEDDVIMLNGTKEDVDVLKTRMEERRLRAKLEKKTKKPKAAESVSKPDVSEEAPGPSKVKTGKPEEASLDSREKKTNLAPKSTAMNESSSGKAGKPPCGATKRSIADSEESEAYKSLFTTHSSAKRSKEESAHWVTHTSYCF
Take B1: in the assay on 3×MBT domain of L3MBTL1, the “3xMBT/D355N UNC Heavy” value worked out at 1.26 log base 2 and the “3xMBT/D355N UNC Light” value is 0.71 log base 2. Moreover, in the assay with G9a and GLP, the “Relative to UNC0638 UNC Heavy” value was found to be 2.48 log base 2, the “Relative to UNC0638 UNC Light” value is −0.46 log base 2 and the “Relative to UNC0638 Average” value was 1.01 log base 2.

B2: HNRNPD (protein, UniProt Q14103 2-355, looked up)
Heterogeneous nuclear …: SEEQFGGDGAAAAATAAVGGSAGEQEGAMVAATQGAAAAAGSGAGTGGGTASGGTEGGSAESEGAKIDASKNEEDEGHSNSSPRHSEAATAQREEWKMFIGGLSWDTTKKDLKDYFSKFGEVVDCTLKLDPITGRSRGFGFVLFKESESVDKVMDQKEHKLNGKVIDPKRAKAMKTKEPVKKIFVGGLSPDTPEEKIREYFGGFGEVESIELPMDNKTNKRRGFCFITFKEEEPVKKIMEKKYHNVGLSKCEIKVAMSKEQYQQQQQWGSRGGFAGRARGRGGGPSQNWNQGYSNYWNQGYGNYGYNSQGYGGYGGYDYTGYNNYYGYGDYSNQQSGYGKVSRRGGHQNSYKPY
Turning to B2, in the assay on 3×MBT domain of L3MBTL1, the “3xMBT/D355N UNC Heavy” value was 4.07 log base 2 and the “3xMBT/D355N UNC Light” value was 4.56 log base 2. Besides, in the assay with G9a and GLP, the “Relative to UNC0638 UNC Heavy” value was determined as 0.06 log base 2, the “Relative to UNC0638 UNC Light” value is reported as 0.29 log base 2 and the “Relative to UNC0638 Average” value was 0.18 log base 2.

B3: PRPF4 (protein, UniProt O43172 1-522, looked up)
U4/U6 small nuclear …: MASSRASSTQATKTKAPDDLVAPVVKKPHIYYGSLEEKERERLAKGESGILGKDGLKAGIEAGNINITSGEVFEIEEHISERQAEVLAEFERRKRARQINVSTDDSEVKACLRALGEPITLFGEGPAERRERLRNILSVVGTDALKKTKKDDEKSKKSKEEYQQTWYHEGPNSLKVARLWIANYSLPRAMKRLEEARLHKEIPETTRTSQMQELHKSLRSLNNFCSQIGDDRPISYCHFSPNSKMLATACWSGLCKLWSVPDCNLLHTLRGHNTNVGAIVFHPKSTVSLDPKDVNLASCAADGSVKLWSLDSDEPVADIEGHTVRVARVMWHPSGRFLGTTCYDRSWRLWDLEAQEEILHQEGHSMGVYDIAFHQDGSLAGTGGLDAFGRVWDLRTGRCIMFLEGHLKEIYGINFSPNGYHIATGSGDNTCKVWDLRQRRCVYTIPAHQNLVTGVKFEPIHGNFLLTGAYDNTAKIWTHPGWSPLKTLAGHEGKVMGLDISSDGQLIATCSYDRTFKLWMAE
With B3, in the assay on 3×MBT domain of L3MBTL1, the “3xMBT/D355N UNC Heavy” value is given as 2.85 log base 2 and the “3xMBT/D355N UNC Light” value stood at 2.26 log base 2. Also, in the assay with G9a and GLP, the “Relative to UNC0638 UNC Heavy” value was found to be 0.63 log base 2, the “Relative to UNC0638 UNC Light” value was −0.28 log base 2 and the “Relative to UNC0638 Average” value amounted to 0.18 log base 2.

B4: SNX9 (protein, UniProt Q9Y5X1 1-595, looked up)
Sorting nexin-9: MATKARVMYDFAAEPGNNELTVNEGEIITITNPDVGGGWLEGRNIKGERGLVPTDYVEILPSDGKDQFSCGNSVADQAFLDSLSASTAQASSSAASNNHQVGSGNDPWSAWSASKSGNWESSEGWGAQPEGAGAQRNTNTPNNWDTAFGHPQAYQGPATGDDDDWDEDWDGPKSSSYFKDSESADAGGAQRGNSRASSSSMKIPLNKFPGFAKPGTEQYLLAKQLAKPKEKIPIIVGDYGPMWVYPTSTFDCVVADPRKGSKMYGLKSYIEYQLTPTNTNRSVNHRYKHFDWLYERLLVKFGSAIPIPSLPDKQVTGRFEEEFIKMRMERLQAWMTRMCRHPVISESEVFQQFLNFRDEKEWKTGKRKAERDELAGVMIFSTMEPEAPDLDLVEIEQKCEAVGKFTKAMDDGVKELLTVGQEHWKRCTGPLPKEYQKIGKALQSLATVFSSSGYQGETDLNDAITEAGKTYEEIASLVAEQPKKDLHFLMECNHEYKGFLGCFPDIIGTHKGAIEKVKESDKLVATSKITLQDKQNMVKRVSIMSYALQAEMNHFHSNRIYDYNSVIRLYLEQQVQFYETIAEKLRQALSRFPVM
On to B4, for which, in the assay with 3×MBT domain of L3MBTL1, the “3xMBT/D355N UNC Heavy” value came to 2.60 log base 2 and the “3xMBT/D355N UNC Light” value is listed as 2.47 log base 2. In addition, in the assay with G9a and GLP, the “Relative to UNC0638 UNC Heavy” value came to 0.31 log base 2, the “Relative to UNC0638 UNC Light” value was determined as 0.04 log base 2 and the “Relative to UNC0638 Average” value is recorded as 0.18 log base 2.

B5: HNRNPA2B1 (protein, UniProt P22626 1-353, looked up)
Heterogeneous nuclear …: MEKTLETVPLERKKREKEQFRKLFIGGLSFETTEESLRNYYEQWGKLTDCVVMRDPASKRSRGFGFVTFSSMAEVDAAMAARPHSIDGRVVEPKRAVAREESGKPGAHVTVKKLFVGGIKEDTEEHHLRDYFEEYGKIDTIEIITDRQSGKKRGFGFVTFDDHDPVDKIVLQKYHTINGHNAEVRKALSRQEMQEVQSSRSGRGGNFGFGDSRGGGGNFGPGPGSNFRGGSDGYGSGRGFGDGYNGYGGGPGGGNFGGSPGYGGGRGGYGGGGPGYGNQGGGYGGGYDNYGGGNYGSGNYNDFGNYNQQPSNYGPMKSGNFGGSRNMGGPYGGGNYGPGGSGGSGGYGGRSRY
For the molecule B5, in the assay with 3×MBT domain of L3MBTL1, the “3xMBT/D355N UNC Heavy” value is given as 3.43 log base 2 and the “3xMBT/D355N UNC Light” value was 3.97 log base 2. Besides, in the assay with G9a and GLP, the “Relative to UNC0638 UNC Heavy” value was 0.07 log base 2, the “Relative to UNC0638 UNC Light” value came out at 0.28 log base 2 and the “Relative to UNC0638 Average” value came to 0.18 log base 2.
